Data set [1] concerns the target T1, LCAT (purified from human plasma) (human, UniProt P04180 25-440).
T1 sequence (looked up): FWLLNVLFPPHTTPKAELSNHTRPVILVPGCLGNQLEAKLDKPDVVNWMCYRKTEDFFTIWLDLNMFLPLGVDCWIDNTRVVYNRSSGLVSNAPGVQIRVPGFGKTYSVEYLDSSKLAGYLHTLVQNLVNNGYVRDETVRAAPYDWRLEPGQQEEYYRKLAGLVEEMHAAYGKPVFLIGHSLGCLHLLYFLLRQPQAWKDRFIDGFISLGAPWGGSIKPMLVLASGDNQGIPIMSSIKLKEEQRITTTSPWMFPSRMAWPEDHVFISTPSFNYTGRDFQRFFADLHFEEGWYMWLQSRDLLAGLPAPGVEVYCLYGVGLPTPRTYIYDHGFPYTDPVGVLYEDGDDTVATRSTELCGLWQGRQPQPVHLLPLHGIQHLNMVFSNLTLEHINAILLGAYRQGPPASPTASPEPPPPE
The data set can be described thus: cell-based or functional assay.

Data set [2] deals with the molecule itself. The data set can be described thus: tryptophan fluorescence emission maximum (332 nm), peptide free in buffer; self-association.

PVLDLFRELGNELLEALKQKLK [peptide 9]: the “ACTIVITY (%) LCAT” value in data set [1] amounted to 63%.

B1: peptide 15 (peptide)
peptide: PVLDLFRELWNELLEALKQKLK
notes: peptide 4 containing a Trp residue at position 10
Regarding B1, the binding result in data set [2] is “binds”.

These data come from US20050215467A1 (published 2005).
